Substrate in this data set: Cc1ccco1
Type of data set: in vitro ADME, human.

Read-outs that look alike come from different tables or passages of the source.

B1: CYP 2E1 (Homo sapiens) (protein)
chain: MSALGVTVALLVWAAFLLLVSMWRQVHSSWNLPPGPFPLPIIGNLFQLELKNIPKSFTRLAQRFGPVFTLYVGSQRMVVMHGYKAVKEALLDYKDEFSGRGDLPAFHAHRDRGIIFNNGPTWKDIRRFSLTTLRNYGMGKQGNESRIQREAHFLLEALRKTQGQPFDPTFLIGCAPCNVIADILFRKHFDYNDEKFLRLMYLFNENFHLLSTPWLQLYNNFPSFLHYLPGSHRKVIKNVAEVKEYVSERVKEHHQSLDPNCPRDLTDCLLVEMEKEKHSAERLYTMDGITVTVADLFFAGTETTSTTLRYGLLILMKYPEIEEKLHEEIDRVIGPSRIPAIKDRQEMPYMDAVVHEIQRFITLVPSNLPHEATRDTIFRGYLIPKGTVVVPTLDSVLYDNQEFPDPEKFKPEHFLNENGKFKYSDYFKPFSTGKRVCAGEGLARMELFLLLCAILQHFNLKPLVDPKDIDLSPIHIGFGCIPPRYKLCVIPRS
For B1, the Km entry (other: CYP 2E1; I) high substrate concentrations) is “I) 1966.76; II) 23.29 μM” and the Km (other: CYP 2E1; II) low substrate concentrations) was 23.3 µM.

(Values after publication PMC11577422.)
